Data set [1] addresses T1, MBP-ATPase/hel, ATPase/helicase domain of human Dicer (1-604) fused with maltose-binding protein, bacterially … (human, UniProt Q9UPY3 1-604).
T1 construct: not shown: the His6 tag and the linker/TEV site lette
T1 sequence: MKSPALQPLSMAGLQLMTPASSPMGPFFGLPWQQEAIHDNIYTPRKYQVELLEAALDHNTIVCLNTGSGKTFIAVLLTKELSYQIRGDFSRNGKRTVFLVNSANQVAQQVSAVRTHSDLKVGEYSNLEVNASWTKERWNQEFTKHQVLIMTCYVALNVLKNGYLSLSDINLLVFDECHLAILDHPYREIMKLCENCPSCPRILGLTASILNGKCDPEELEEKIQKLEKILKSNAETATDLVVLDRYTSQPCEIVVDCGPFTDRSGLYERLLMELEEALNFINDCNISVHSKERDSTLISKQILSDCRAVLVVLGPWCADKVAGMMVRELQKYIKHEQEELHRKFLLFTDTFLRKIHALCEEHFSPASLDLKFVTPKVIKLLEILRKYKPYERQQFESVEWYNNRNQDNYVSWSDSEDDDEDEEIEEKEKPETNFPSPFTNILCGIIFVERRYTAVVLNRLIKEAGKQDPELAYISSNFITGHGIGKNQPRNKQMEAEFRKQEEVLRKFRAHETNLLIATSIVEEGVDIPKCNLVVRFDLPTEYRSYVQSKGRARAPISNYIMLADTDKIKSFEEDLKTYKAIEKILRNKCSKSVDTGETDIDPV
The data set is described as follows: size exclusion and pull-down (brief figure description). On the procedure:
Six microgram of both of hTRBP2 and mbp-ATPase/hel-HA proteins were mixed with 15 μl of anti-hemagglutinin (anti-HA) antibody-coupled agarose beads in 1× phosphate-buffered saline (PBS) buffer (Sigma, Saint Louis, Mo.) and incubated in cold room and rocked 60 min. The mixture was pelleted by 30 sec spin at 10,000×g and then washed once with 1×PBS and followed by 5 times with the washing buffer of 20 mM Hepes (pH 7.5), 250 mM NaCl, 1% glycerol and 0.1% Triton X-100. After the last wash, the pellet was boiled for 3 min in 1.2×SDS protein loading buffer. As a control, hTRBP2 alone was also processed in the same way.
ATPase/Helicase domain of hDcr interacts with TRBP. A. Schematic representation of bacterially expressed ATPase/hel domain tagged with MBP. B. The interaction of MBP-ATPase/hel fragment with hTRBP2. A pre-incubated mixture of the MBP-ATPase/hel fragment with 3-fold excess of hTRBP2 was fractionated with a Superdex 200 size-exclusion column (top panel, elution profile). […] The excess hTRBP2 elutes in the second peak. C. MBP-ATPase/hel can pull-down hTRBP2. The MBP-ATPase/hel-domain was purified with a C-terminal hemagglutinin (HA) epitope tag. The two purified proteins (30 pmol of hDcr and 130 pmol of hTRBP2) were incubated on ice with anti-HA antibody agarose beads (Sigma-Aldrich) for 60 min prior to several washes. The bound proteins are eluted via boiling with 1.2×SDS buffer. […]

In data set [2] the target is T2, hDcr-CΔRBD fragment of human Dicer (Homo sapiens, UniProt Q9UPY3 SEQ:1235-1844).
T2 chain: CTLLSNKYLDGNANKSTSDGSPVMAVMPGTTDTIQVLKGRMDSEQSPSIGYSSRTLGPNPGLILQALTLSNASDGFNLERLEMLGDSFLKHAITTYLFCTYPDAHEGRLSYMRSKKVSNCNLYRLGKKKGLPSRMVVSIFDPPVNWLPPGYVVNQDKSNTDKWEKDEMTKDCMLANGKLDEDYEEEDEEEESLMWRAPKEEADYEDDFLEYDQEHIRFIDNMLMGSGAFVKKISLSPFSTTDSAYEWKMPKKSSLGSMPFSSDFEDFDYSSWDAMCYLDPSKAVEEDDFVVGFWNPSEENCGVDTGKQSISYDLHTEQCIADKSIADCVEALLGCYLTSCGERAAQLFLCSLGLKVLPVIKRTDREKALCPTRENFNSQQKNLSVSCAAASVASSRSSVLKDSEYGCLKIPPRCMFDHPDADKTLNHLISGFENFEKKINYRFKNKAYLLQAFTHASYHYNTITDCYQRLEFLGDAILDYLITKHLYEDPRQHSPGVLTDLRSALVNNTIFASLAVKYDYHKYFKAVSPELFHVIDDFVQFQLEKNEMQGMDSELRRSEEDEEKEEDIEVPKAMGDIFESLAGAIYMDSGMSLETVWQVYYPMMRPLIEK
The data set is described as follows: filter; out of detectable limit. Conditions: tags: expressed from pHMGWA-His6-MBP vector, E. coli; label: 5'-32P on one strand; siRNA duplex, 19 bp, Dicer product mimic. On the procedure: (§1) Filter binding assays of hDcr and different hDcr fragments were performed in the same way as previously described (7). Briefly, serial dilutions of hDcr protein were incubated in a buffer containing 20 mM Tris-HCl (pH 7.5), 25 mM NaCl, 5 mM EDTA, 1 mM dithiothreitol (DTT), 1% glycerol and ˜0.5-1 nM (1500 CPM) of 5′-end ³²P-labeled duplex RNA substrate (one strand was labeled) at room temperature for 60 min in a 30 μl of total volume. Following incubation, a 25 μl aliquot of each reaction was applied to a dot-blot apparatus equipped with three membranes: Tuffryn, Protran and Nytran (from top to bottom). After drying, the bound (on Protran) or free (on Nytran) RNAs were quantified by a Phosphorimager (GE Healthcare). Percent bound RNA, calculated as the ratio of radioactivity detected on the Protran membrane over the total input radioactivity, was plotted as a function of protein concentration. Kd was determined by global fitting to the equation: kobsd=(kₘₐₓ[…]) (Kd+[Dicer])−1, where kobsd is the observed rate constant at a given protein concentration, kₘₐₓ is the maximal rate constant with saturating protein, and Kd is the protein concentration that provides half the maximal rate. Curve fitting was conducted with KaleidaGraph (Synergy Software, Reading, Pa.).
To establish the relationship between cleavage activity and substrate binding, nitrocellulose filter-binding assays were performed with three kinds of RNAs under non-cleavage conditions: substrate dsRNA ([…]), Dicer product-mimic dsRNA (19-bp) and a pre-miRNA (pre-hlet-7a-1).

The target in data set [3] is T3, hDcr-C (RNase IIIa/IIIb-dsRBD) fragment of human Dicer (Homo sapiens, UniProt Q9UPY3 SEQ:1235-1922).
T3 chain: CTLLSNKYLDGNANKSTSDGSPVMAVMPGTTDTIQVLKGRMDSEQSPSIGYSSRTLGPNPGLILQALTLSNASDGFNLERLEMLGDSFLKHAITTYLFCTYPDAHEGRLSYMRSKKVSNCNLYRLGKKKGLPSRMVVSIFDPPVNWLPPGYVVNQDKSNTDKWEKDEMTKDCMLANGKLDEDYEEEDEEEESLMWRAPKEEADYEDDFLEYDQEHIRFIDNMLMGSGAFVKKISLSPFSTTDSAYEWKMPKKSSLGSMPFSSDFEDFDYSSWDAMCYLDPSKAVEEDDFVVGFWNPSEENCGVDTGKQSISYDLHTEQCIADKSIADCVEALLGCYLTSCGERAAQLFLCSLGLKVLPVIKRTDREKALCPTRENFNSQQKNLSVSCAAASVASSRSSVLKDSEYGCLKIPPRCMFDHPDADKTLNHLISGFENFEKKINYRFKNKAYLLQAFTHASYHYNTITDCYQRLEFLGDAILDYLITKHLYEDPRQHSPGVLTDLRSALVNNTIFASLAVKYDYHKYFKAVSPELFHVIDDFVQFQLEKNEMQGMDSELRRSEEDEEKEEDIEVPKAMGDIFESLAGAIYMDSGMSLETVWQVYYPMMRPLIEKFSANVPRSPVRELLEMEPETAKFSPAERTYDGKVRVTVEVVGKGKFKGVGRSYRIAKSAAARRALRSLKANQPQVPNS
Kind of data set: filter; out of detectable limit; almost no binding. As to conditions: tags: expressed from pHMGWA-His6-MBP vector, E. coli; label: 5'-32P on one strand; siRNA duplex, 19 bp, Dicer product mimic. The protocol:
as §1, with “Pa.). […]” for “Pa.).”

Data set [4] has as its target T4, MBP-ATPase/helicase fragment of human Dicer (Homo sapiens, UniProt Q9UPY3 SEQ:1-604).
T4 chain: T1 sequence
Kind of data set: filter; out of detectable limit; 5 mM EDTA. As to conditions: tags: His6-MBP N-terminal fusion (pHMGWA), E. coli; label: 5'-32P on one strand; siRNA duplex, 19 bp, Dicer product mimic. The protocol:
as §1, with “Pa.). […]” for “Pa.).”

Data set [5] concerns the target T5, hDcr-CΔRBD, hDcr-C lacking the C-terminal dsRBD (1235-1844), bacterially expressed (human, UniProt Q9UPY3 1235-1844).
T5 construct: also called hDcr-CARBD
T5 sequence: T2 chain
The data set is described as follows: complex formation; method not detailed.

The target in data set [6] is T6, hDcr-C, C-terminal fragment of human Dicer (1235-1922), bacterially expressed (human, UniProt Q9UPY3 1235-1922).
T6 construct: Expressed in E. coli from the pHMGWA-His6-MBP destination vector via pENTR/TEV/D-TOPO
T6 sequence: T3 chain
The data set is described as follows: size-exclusion chromatography after incubation without RNA. On the procedure:
To assess the role of the PAZ domain in determining Dicer cleavage product length, an attempt was made to express the PAZ domain alone in E. coli. Although this was unsuccessful, a construct including both the PAZ domain and the adjacent DUF283 region yielded soluble protein (hereafter the tandem construct named DP, FIG. 2A). […] To test for a direct protein-protein interaction, hDcr-C and DP polypeptides were incubated together in the absence of RNA and then analyzed by size exclusion chromatography.
DP forms a stable complex with hDcr-C. A pre-incubated mixture of the hDcr-C fragment with 3-fold excess of DP was analyzed with a Superdex 200 size-exclusion column (top panel, elution profile).

B1: human TAR-RNA binding protein (hTRBP2), recombinant (other, UniProt Q15633 1-366, looked up)
chain: MSEEEQGSGTTTGCGLPSIEQMLAANPGKTPISLLQEYGTRIGKTPVYDLLKAEGQAHQPNFTFRVTVGDTSCTGQGPSKKAAKHKAAEVALKHLKGGSMLEPALEDSSSFSPLDSSLPEDIPVFTAAAAATPVPSVVLTRSPPMELQPPVSPQQSECNPVGALQELVVQKGWRLPEYTVTQESGPAHRKEFTMTCRVERFIEIGSGTSKKLAKRNAAAKMLLRVHTVPLDARDGNEVEPDDDHFSIGVGSRLDGLRNRGPGCTWDSLRNSVGEKILSLRSCSLGSLGALGPACCRVLSELSEEQAFHVSYLDIEELSLSGLCQCLVELSTQPATVCHGSATTREAARGEAARRALQYLKIMAGSK
notes: Purified recombinant protein
B1: the binding result in data set [1] is listed as “binds”.

B2: 21ab (dsRNA)
RNA 1: UAUACAAUGUGCUAGCUUUCU
RNA 2: AAAGCUAGCACAUUGUAUAGU
Consider B2, for which the binding result in data set [2], in data set [3] and in data set [4] was “no binding” in each case.

B3: DP, tandem DUF283-PAZ domains of human Dicer (605-1068), bacterially expressed (other)
chain: MDDDDVFPPYVLRPDDGGPRVTINTAIGHINRYCARLPSDPFTHLAPKCRTRELPDGTFYSTLYLPINSPLRASIVGPPMSCVRLAERVVALICCEKLHKIGELDDHLMPVGKETVKYEEELDLHDEEETSVPGRPGSTKRRQCYPKAIPECLRDSYPRPDQPCYLYVIGMVLTTPLPDELNFRRRKLYPPEDTTRCFGILTAKPIPQIPHFPVYTRSGEVTISIELKKSGFMLSLQMLELITRLHQYIFSHILRLEKPALEFKPTDADSAYCVLPLNVVNDSSTLDIDFKFMEDIEKSEARIGIPSTKYTKETPFVFKLEDYQDAVIIPRYRNFDQPHRFYVADVYTDLTPLSKFPSPEYETFAEYYKTKYNLDLTNLNQPLLDVDHTSSRLNLLTPRHLNQKGKALPLSSAEKRKAKWESLQNKQILVPELCAIHPIPASLWRKAVCLPSILYRLHCLLTAE
notes: Expressed in E. coli from the pHMGWA-His6-MBP vector; also called middle domains of hDcr
B3: the binding result in data set [5] and in data set [6] was “binds” each time.
